Assay results published in patent US20100272723A1 (Xencor, published 2010).
Changes are numbered by the printed parent chain. Numbers in names are those of the source.

T1: human CD19 (human, UniProt P15391 20-556)
T1 construct: also called B-cell surface antigen B4; B-cell antigen CD19
T1 sequence: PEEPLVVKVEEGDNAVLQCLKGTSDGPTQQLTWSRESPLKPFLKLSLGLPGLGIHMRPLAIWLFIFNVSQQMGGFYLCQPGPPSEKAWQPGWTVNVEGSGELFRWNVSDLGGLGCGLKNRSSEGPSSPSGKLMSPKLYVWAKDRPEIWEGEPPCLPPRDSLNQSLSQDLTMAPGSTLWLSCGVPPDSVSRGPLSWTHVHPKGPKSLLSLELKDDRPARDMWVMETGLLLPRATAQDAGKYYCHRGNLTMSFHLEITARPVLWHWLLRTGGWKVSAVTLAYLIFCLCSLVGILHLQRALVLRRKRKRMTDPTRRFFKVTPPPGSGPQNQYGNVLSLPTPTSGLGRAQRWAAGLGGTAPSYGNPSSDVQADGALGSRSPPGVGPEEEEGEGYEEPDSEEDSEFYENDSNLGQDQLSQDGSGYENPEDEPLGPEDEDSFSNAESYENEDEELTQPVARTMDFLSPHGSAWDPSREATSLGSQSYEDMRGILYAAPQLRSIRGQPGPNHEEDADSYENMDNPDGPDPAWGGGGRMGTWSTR

B1: H1.196 / L1.154 (antibody, V domains shown)
VH: EVQLVESGGGLVKPGGSLKLSCAASGYTFTSYVMHWVRQAPGKGLEWIGYINPYNDGPKYNEKFQGRVTISSDKSISTAYMELSSLRSEDTAMYYCARGTYYYGTSVFDYWGQGTLVTVSS
VL: DIVMTQSPATLSLSPGERATLSCRSSKSLQNVNGNTYLYWFQQKPGQSPQLLIYRMSNLNSGVPDRFSGSGSGTEFTLTISSLEPEDFAVYYCMQHLEYPNTFGAGTKLEIK
notes: vs H1L1 (Kabat): VH T57P/S100cT/R100dS; VL L27cQ/S27eV/A55N/F96N; also called 4G7 H1.196_L1.154
B2: H1.203 / L1.161 (antibody, V domains shown)
VH: B1 VH with D56S, P58T, K59E, S106R
VL: B1 VL with G34S, N101I
notes: vs H1L1 (Kabat): VH D55S/K58E/S100cT; VL L27cQ/S27eV/G29S/A55N/F96I; also called 4G7 H1.203_L1.161
B3: H1.202 / L1.160 (antibody, V domains shown)
VH: B1 VH with D56E, P58T, S106R
VL: B1 VL with G34A, N101I
notes: vs H1L1 (Kabat): VH D55E/S100cT; VL L27cQ/S27eV/G29A/A55N/F96I; also called 4G7 H1.202_L1.160
B4: H1.147 / L1 (antibody, V domains shown)
VH: B1 VH with P58T, T105S, S106R, D109S
VL: B1 VL with Q30L, V32S, N60A, N101F
notes: vs H1L1 (Kabat): VH D101S; also called 4G7 H1.147_L1
B5: H1.191 / L1.160 (antibody, V domains shown)
VH: B1 VH with P58T, K59E, S106R
VL: B1 VL with G34A, N101I
notes: vs H1L1 (Kabat): VH K58E/S100cT; VL L27cQ/S27eV/G29A/A55N/F96I; also called 4G7 H1.191_L1.160
B6: H1.192 / L1.141 (antibody, V domains shown)
VH: B1 VH with S106R
VL: B1 VL with Q30L, V32S
notes: vs H1L1 (Kabat): VH T57P/S100cT; VL A55N/F96N; also called 4G7 H1.192_L1.141
B7: H1.199 / L1.148 (antibody, V domains shown)
VH: B1 VH with K59E, S106R
VL: B1 VL with V32S
notes: vs H1L1 (Kabat): VH T57P/K58E/S100cT; VL L27cQ/A55N/F96N; also called 4G7 H1.199_L1.148
B8: H1.196 / L1.146 (antibody, V domains shown)
VH: B1 VH
VL: B1 VL with Q30L
notes: vs H1L1 (Kabat): VH T57P/S100cT/R100dS; VL S27eV/A55N/F96N; also called 4G7 H1.196_L1.146
B9: H1.201 / L1.161 (antibody, V domains shown)
VH: B1 VH with D56S, P58T, S106R
VL: B1 VL with G34S, N101I
notes: vs H1L1 (Kabat): VH D55S/S100cT; VL L27cQ/S27eV/G29S/A55N/F96I; also called 4G7 H1.201_L1.161
B10: H1.203 / L1.160 (antibody, V domains shown)
VH: B1 VH with D56S, P58T, K59E, S106R
VL: B1 VL with G34A, N101I
notes: vs H1L1 (Kabat): VH D55S/K58E/S100cT; VL L27cQ/S27eV/G29A/A55N/F96I; also called 4G7 H1.203_L1.160
B11: H1.196 / L1 (antibody, V domains shown)
VH: B1 VH
VL: B1 VL with Q30L, V32S, N60A, N101F
notes: vs H1L1 (Kabat): VH T57P/S100cT/R100dS; also called 4G7 H1.196_L1
B12: H1.199 / L1.146 (antibody, V domains shown)
VH: B1 VH with K59E, S106R
VL: B1 VL with Q30L
notes: vs H1L1 (Kabat): VH T57P/K58E/S100cT; VL S27eV/A55N/F96N; also called 4G7 H1.199_L1.146
B13: H1.191 / L1.149 (antibody, V domains shown)
VH: B1 VH with P58T, K59E, S106R
VL: B1 VL with V32S, N101I
notes: vs H1L1 (Kabat): VH K58E/S100cT; VL L27cQ/A55N/F96I; also called 4G7 H1.191_L1.149
B14: H1.192 / L1.154 (antibody, V domains shown)
VH: B1 VH with S106R
VL: B1 VL
notes: vs H1L1 (Kabat): VH T57P/S100cT; VL L27cQ/S27eV/A55N/F96N; also called 4G7 H1.192_L1.154
B15: H1.192 / L1.144 (antibody, V domains shown)
VH: B1 VH with S106R
VL: B1 VL with V32S, N60A
notes: vs H1L1 (Kabat): VH T57P/S100cT; VL L27cQ/F96N; also called 4G7 H1.192_L1.144
B16: H1.192 / L1.146 (antibody, V domains shown)
VH: B1 VH with S106R
VL: B1 VL with Q30L
notes: vs H1L1 (Kabat): VH T57P/S100cT; VL S27eV/A55N/F96N; also called 4G7 H1.192_L1.146
B17: H1.191 / L1.155 (antibody, V domains shown)
VH: B1 VH with P58T, K59E, S106R
VL: B1 VL with N101I
notes: vs H1L1 (Kabat): VH K58E/S100cT; VL L27cQ/S27eV/A55N/F96I; also called 4G7 H1.191_L1.155
B18: H1.192 / L1.152 (antibody, V domains shown)
VH: B1 VH with S106R
VL: B1 VL with N60A
notes: vs H1L1 (Kabat): VH T57P/S100cT; VL L27cQ/S27eV/F96N; also called 4G7 H1.192_L1.152
B19: H1.199 / L1.152 (antibody, V domains shown)
VH: B1 VH with K59E, S106R
VL: B1 VL with N60A
notes: vs H1L1 (Kabat): VH T57P/K58E/S100cT; VL L27cQ/S27eV/F96N; also called 4G7 H1.199_L1.152
B20: H1.201 / L1.155 (antibody, V domains shown)
VH: B1 VH with D56S, P58T, S106R
VL: B1 VL with N101I
notes: vs H1L1 (Kabat): VH D55S/S100cT; VL L27cQ/S27eV/A55N/F96I; also called 4G7 H1.201_L1.155
B21: H1.196 / L1.152 (antibody, V domains shown)
VH: B1 VH
VL: B1 VL with N60A
notes: vs H1L1 (Kabat): VH T57P/S100cT/R100dS; VL L27cQ/S27eV/F96N; also called 4G7 H1.196_L1.152
B22: H1.191 / L1.161 (antibody, V domains shown)
VH: B1 VH with P58T, K59E, S106R
VL: B1 VL with G34S, N101I
notes: vs H1L1 (Kabat): VH K58E/S100cT; VL L27cQ/S27eV/G29S/A55N/F96I; also called 4G7 H1.191_L1.161
B23: H1.199 / L1.141 (antibody, V domains shown)
VH: B1 VH with K59E, S106R
VL: B1 VL with Q30L, V32S
notes: vs H1L1 (Kabat): VH T57P/K58E/S100cT; VL A55N/F96N; also called 4G7 H1.199_L1.141
B24: H1.199 / L1.139 (antibody, V domains shown)
VH: B1 VH with K59E, S106R
VL: B1 VL with Q30L, N60A
notes: vs H1L1 (Kabat): VH T57P/K58E/S100cT; VL S27eV/F96N; also called 4G7 H1.199_L1.139
B25: H1.201 / L1.160 (antibody, V domains shown)
VH: B1 VH with D56S, P58T, S106R
VL: B1 VL with G34A, N101I
notes: vs H1L1 (Kabat): VH D55S/S100cT; VL L27cQ/S27eV/G29A/A55N/F96I; also called 4G7 H1.201_L1.160
B26: H1.203 / L1.155 (antibody, V domains shown)
VH: B1 VH with D56S, P58T, K59E, S106R
VL: B1 VL with N101I
notes: vs H1L1 (Kabat): VH D55S/K58E/S100cT; VL L27cQ/S27eV/A55N/F96I; also called 4G7 H1.203_L1.155
B27: H1.192 / L1.148 (antibody, V domains shown)
VH: B1 VH with S106R
VL: B1 VL with V32S
notes: vs H1L1 (Kabat): VH T57P/S100cT; VL L27cQ/A55N/F96N; also called 4G7 H1.192_L1.148
B28: H1.204 / L1.160 (antibody, V domains shown)
VH: B1 VH with D56E, P58T, K59E, S106R
VL: B1 VL with G34A, N101I
notes: vs H1L1 (Kabat): VH D55E/K58E/S100cT; VL L27cQ/S27eV/G29A/A55N/F96I; also called 4G7 H1.204_L1.160
B29: H1.202 / L1.161 (antibody, V domains shown)
VH: B1 VH with D56E, P58T, S106R
VL: B1 VL with G34S, N101I
notes: vs H1L1 (Kabat): VH D55E/S100cT; VL L27cQ/S27eV/G29S/A55N/F96I; also called 4G7 H1.202_L1.161
B30: H1.113 / L1 (antibody, V domains shown)
VH: B1 VH with P58H, T105S, S106R
VL: B1 VL with Q30L, V32S, N60A, N101F
notes: vs H1L1 (Kabat): VH T57H; also called 4G7 H1.113_L1
B31: H1.144 / L1 (antibody, V domains shown)
VH: B1 VH with P58T, T105S, S106R, D109N
VL: B1 VL with Q30L, V32S, N60A, N101F
notes: vs H1L1 (Kabat): VH D101N; also called 4G7 H1.144_L1
B32: H1.146 / L1 (antibody, V domains shown)
VH: B1 VH with P58T, T105S, S106R, D109H
VL: B1 VL with Q30L, V32S, N60A, N101F
notes: vs H1L1 (Kabat): VH D101H; also called 4G7 H1.146_L1
B33: H1 / L1.3 (antibody, V domains shown)
VH: B1 VH with P58T, T105S, S106R
VL: B1 VL with Q30L, V32S, S57Q, N60A, N101F
notes: vs H1L1 (Kabat): VL S52Q; also called 4G7 H1_L1.3
B34: H1 / L1.54 (antibody, V domains shown)
VH: B1 VH with P58T, T105S, S106R
VL: B1 VL with Q30L, V32S, N58G, N60A, N101F
notes: vs H1L1 (Kabat): VL N53G; also called 4G7 H1_L1.54
B35: H1 / L1.46 (antibody, V domains shown)
VH: B1 VH with P58T, T105S, S106R
VL: B1 VL with Q30L, V32S, N58H, N60A, N101F
notes: vs H1L1 (Kabat): VL N53H; also called 4G7 H1_L1.46
B36: H1 / L1.8 (antibody, V domains shown)
VH: B1 VH with P58T, T105S, S106R
VL: B1 VL with Q30L, V32S, S57K, N60A, N101F
notes: vs H1L1 (Kabat): VL S52K; also called 4G7 H1_L1.8
B37: H1 / L1.9 (antibody, V domains shown)
VH: B1 VH with P58T, T105S, S106R
VL: B1 VL with Q30L, V32S, S57L, N60A, N101F
notes: vs H1L1 (Kabat): VL S52L; also called 4G7 H1_L1.9
B38: H1 / L1.26 (antibody, V domains shown)
VH: B1 VH with P58T, T105S, S106R
VL: B1 VL with V32S, N60A, N101F
notes: vs H1L1 (Kabat): VL L27cQ; also called 4G7 H1_L1.26
B39: H1 / L1.17 (antibody, V domains shown)
VH: B1 VH with P58T, T105S, S106R
VL: B1 VL with Q30L, V32S, N60A, E98T, N101F
notes: vs H1L1 (Kabat): VL E93T; also called 4G7 H1_L1.17
B40: H1 / L1.32 (antibody, V domains shown)
VH: B1 VH with P58T, T105S, S106R
VL: B1 VL with Q30L, N60A, N101F
notes: vs H1L1 (Kabat): VL S27eV; also called 4G7 H1_L1.32

What follows are binders tested against T1, human CD19 (assay: binding affinity relative to the parent H1L1 mAb (Example 5); assay and format not named on the sheet).

Binder	Fold change binding
B1	4.44 fold
B2	2.92 fold
B3	3.96 fold
B4	2.65 fold
B5	2.91 fold
B6	2.57 fold
B7	4.34 fold
B8	3.57 fold
B9	3.89 fold
B10	1.76 fold
B11	3.42 fold
B12	4.11 fold
B13	6.02 fold
B14	5.12 fold
B15	3.63 fold
B16	3.19 fold

Binder	Fold change binding
B17	4.56 fold
B18	2.98 fold
B19	3.55 fold
B20	4.48 fold
B21	4.36 fold
B22	3.97 fold
B23	4.02 fold
B24	2.36 fold
B25	4.51 fold
B26	4.73 fold
B27	4.63 fold
B28	3.46 fold
B29	4.3 fold
B30	1.29 fold
B31	2.26 fold
B32	2.45 fold

Target: T1, human CD19
Test: as above
Remark: another data set of the same source

Binder	Fold change binding
B33	1.85 fold
B34	1.5 fold
B35	1.75 fold
B36	2.18 fold
B37	1.84 fold
B38	1.73 fold
B39	1.57 fold
B40	2.61 fold
